Values quoted from earlier work as cited in PMC9303997.

What was measured:
VPS4B MIT (Homo sapiens) = VPS4B MIT (Homo sapiens) (UniProt O75351)
[1] = biological target: spastin MIT (Homo sapiens) (UniProt Q9UBP0)
spastin MIT (Homo sapiens), sequence (Q9UBP0 117-198): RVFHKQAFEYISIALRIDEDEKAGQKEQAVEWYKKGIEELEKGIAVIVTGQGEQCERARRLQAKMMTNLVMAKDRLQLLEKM

VPS4B MIT (Homo sapiens), sequence (O75351 1-85): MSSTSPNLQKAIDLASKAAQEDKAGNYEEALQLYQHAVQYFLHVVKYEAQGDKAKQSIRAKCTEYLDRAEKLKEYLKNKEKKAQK

Substance: IST1 MIM (from UniProt P53990)
- Kd (VPS4B MIT (Homo sapiens)): 12 nM
- Kd [1]: 0.5 nM
